From patent US10858423B2, “Composition for the treatment of IGF-1R expressing cancer” (PIERRE FABRE MEDICAMENT, priority 2015, dated 2020)

Columns and labels:
[1] = molecular target: T1, MCF-7 breast adenocarcinoma cell line (Homo sapiens, UniProt P08069); experiment: FACS binding of humanized variants on MCF-7
T1 construct: host or cells: MCF-7
Procedure: The binding properties of the humanized variants were evaluated by FACS analyses on the human MCF-7 breast adenocarcinoma cell line and the monkey cell line Cos-7 using increasing antibody concentrations. For that purpose, cells (1×10^6 cells/ml) were incubated with anti-IGF-1R antibodies for 20 min. at 4° C. in FACS buffer (PBS, 0.1% BSA, 0.01% NaN3). They were then washed 3 times and incubated with the appropriate secondary antibody coupled with Alexa 488 for 20 additional minutes at 4° C. in the dark before being washed 3 times in FACS buffer. The binding of anti-IGF-1R antibodies was immediately performed on viable cells which were identified using propidium iodide (that stains dead cells). The EC50 of binding expressed in molarity (M) was calculated using a nonlinear regression analysis (GraphPad Prims 4.0).

soluble form of h-IGF1R = molecular target: T2, soluble form of h-IGF1R (Homo sapiens, UniProt P08069); experiment: Biacore binding competition on captured soluble h-IGF1R; conditions: antibodies 50 μg/ml, 25° C.
T2 construct: a heterotetramer composed by two alpha chains and two extracellular domains of the beta chains; made in house
Description: The experiment was run on a Biacore X100 device based on the Surface Plasmon Resonance technology. A CM5 sensor chip was activated with a mouse anti-polyHistidine IgG1 monoclonal antibody chemically linked to the carboxymethyldextran matrix using the amine coupling chemistry. Typically, 12451 RU and 12257 RU of antibodies were grafted on the flowcell 1 (FC1) and flowcell 2 (FC2) respectively. The classical HBS-EP+ buffer was used as the running buffer. This buffer was also used for the preparation of the solutions of the proteins. The experiment was carried at 25° C. and at a flow rate of […].
The soluble form of IGF1R produced in house is a heterotetramer composed by two alpha chains and two extracellular domains of the beta chains completed by a 6 Histidine sequence at their C-terminal end. The protein is injected during one minute on the FC2 at the concentration of 30 μg/ml (about 80 nM). The antibodies are injected at the concentration of 50 μg/ml (about 330 nM). Either a first antibody solution (FIGS. 35B and 35D) or the running buffer (FIGS. 35A and 35C) is injected during 90 s on both flowcells. A second antibody solution is then injected on both flow cells. The absence of binding of the second antibody after the binding of the first antibody is the proof that both antibodies bind to a nearby site on the antigen (FIG. 35B) At the opposite the binding of the second antibody after the binding of the first antibody is the proof that the binding site of the second antibody is out and away of the binding site of the first antibody (FIG. 35D). At the end of each cycle, the sensor chip surface is regenerated by an injection of a Glycine, HCl 10 mM pH 1.5 buffer during 30 s.
The levels of binding of the Ac2 (arrows) without (FIGS. 35A and 35B) or with an Ac1 (FIGS. 35C and 35D) were recorded 20 s after the end of the injection. The data are represented on the histogram graph in FIG. 36.

IGF-1R, SBC-5 tumor = molecular target: T3, IGF-1R, SBC-5 tumor (Homo sapiens, UniProt P08069); experiment: IHC detection of IGF-1R on SBC-5 xenograft sections; set-up: key: No reactivity or membranous reactivity in less than 10% of tumour cells; 1+: Faint/barely perceptible membranous reactivity is detected in more than 10% of tumour cells. The cells are immunoreactive only in part of the membrane.; 2+: Weak to moderate complete membranous reactivity is seen in more than 10% of tumour cells.; 3+: Strong complete reactivity is seen in more than 10% of tumour cells; conditions: same protocol as MCF-7; paraffin embedded tumor
T3 construct: from tissue; host or cells: SBC-5 xenograft tumour grown in athymic mice, paraffin sections
Procedure: (§1) Sections of tissue from MCF-7 xenograft were deparaffinized, rehydrated, and placed in Target Retrieval Buffer 1× (Dako S1699) in a boiling bath pre-warm at 98° C. for heat-induced epitope retrieval at 98° C. for 40 minutes then 20 additional minutes in the Target Retrieval Buffer. After 3 washes in Tris Buffer Saline-0.05% tween 20 (TBS-T) (Dako S3006) the Endogenous peroxidase activity was blocked using Peroxidase Blocking Reagent (Dako K4007) for five minutes. Sections were washed with TBS-T and incubated a blocking reagent (UltraV block-TA-125UB-LabVision) for 5 minutes before incubation with either the 816C12 monoclonal antibody (at 5 μg/ml) or mouse IgG1/kappa (5 μg/ml, X0931, Dako) as negative control for 1 hours at room temperature. Sections were washed with TBS-T and incubated with Envision (Dako) for 30 minutes. Diaminobenzidine was used for development of a brown reaction product (Dako K3468). The slides were immersed in hematoxylin for 2 minutes to counterstain (Dako S3309).
Level of IGF-1R was analyzed using the same protocol described in section 2.1 of the example 2 before.

rhIR = rhIR (Homo sapiens, UniProt P06213); experiment: direct ELISA on rhIR coating (816C12, 810D12); assay type: binding; conditions: for OD values obtained at 5 μg/ml by ELISA, rhIR coating: OD at 450 nm; for binding to the human IR: ELISA
Procedure: (§2) Further characterizations of 816C12 and 810D12 were then performed using hybridoma supernatant such as rhIGF-1R or rmIGF-1R or rhIR ELISA. In all direct ELISAs, proteins of interest were immobilized (1 μg/ml) to the bottom of each well. After saturation, hybridoma supernatants were added to the wells. After a 1-hour incubation period and a washing step, a solution of goat anti-mouse IgG—HRP labelled polyclonal antibody was used for detection, prior to the addition of the TMB substrate. The reaction was stopped with a 1M H2SO4 solution before reading the OD with a spectrophotometer at a 450 nm wavelength.

rmIGF-1R = rmIGF-1R (Mus musculus, UniProt Q60751); experiment: direct ELISA on rmIGF-1R coating (816C12, 810D12); assay type: binding, murine; conditions: for OD values obtained at 5 μg/ml by ELISA, rmIGF-1R coating: OD at 450 nm; for binding to the murine form of the IGF-1R: ELISA
Procedure: as §2

rhIGF-1R = molecular target: T4, rhIGF-1R (Homo sapiens, UniProt P08069); experiment: direct ELISA on rhIGF-1R coating (816C12, 810D12); assay type: binding; conditions: for OD values obtained at 5 μg/ml by ELISA, rhIGF-1R coating: OD at 450 nm; for EC50: ELISA dose response, Prism
T4 construct: poorly recognize the rhIGF-1R ECD protein when directly coated to ELISA plates; purchased R&D Systems 391-GR
Procedure: as §2
The dose response curves for the second IGF-1R antibodies on rhIGF-1R coating are presented in FIG. 1 for the 816C12 and in FIG. 1B for the 810D12. The values of the EC50 are determined using Prism application.

[2] = molecular target: T5, IGF-1R, MCF-7 tumor cells (Homo sapiens, UniProt P08069); experiment: IHC detection of IGF-1R on MCF-7 xenograft sections; set-up: key: No reactivity or membranous reactivity in less than 10% of tumour cells; 1+: Faint/barely perceptible membranous reactivity is detected in more than 10% of tumour cells. The cells are immunoreactive only in part of the membrane.; 2+: Weak to moderate complete membranous reactivity is seen in more than 10% of tumour cells.; 3+: Strong complete reactivity is seen in more than 10% of tumour cells; conditions: membranous algorithm; antibody 5 μg/ml; paraffin embedded tumor
T5 construct: from tissue; host or cells: MCF-7 xenograft tumour grown in Swiss/Nude mice, paraffin sections
Procedure: as §1

Chain of rmIGF-1R (Q60751 31-1373): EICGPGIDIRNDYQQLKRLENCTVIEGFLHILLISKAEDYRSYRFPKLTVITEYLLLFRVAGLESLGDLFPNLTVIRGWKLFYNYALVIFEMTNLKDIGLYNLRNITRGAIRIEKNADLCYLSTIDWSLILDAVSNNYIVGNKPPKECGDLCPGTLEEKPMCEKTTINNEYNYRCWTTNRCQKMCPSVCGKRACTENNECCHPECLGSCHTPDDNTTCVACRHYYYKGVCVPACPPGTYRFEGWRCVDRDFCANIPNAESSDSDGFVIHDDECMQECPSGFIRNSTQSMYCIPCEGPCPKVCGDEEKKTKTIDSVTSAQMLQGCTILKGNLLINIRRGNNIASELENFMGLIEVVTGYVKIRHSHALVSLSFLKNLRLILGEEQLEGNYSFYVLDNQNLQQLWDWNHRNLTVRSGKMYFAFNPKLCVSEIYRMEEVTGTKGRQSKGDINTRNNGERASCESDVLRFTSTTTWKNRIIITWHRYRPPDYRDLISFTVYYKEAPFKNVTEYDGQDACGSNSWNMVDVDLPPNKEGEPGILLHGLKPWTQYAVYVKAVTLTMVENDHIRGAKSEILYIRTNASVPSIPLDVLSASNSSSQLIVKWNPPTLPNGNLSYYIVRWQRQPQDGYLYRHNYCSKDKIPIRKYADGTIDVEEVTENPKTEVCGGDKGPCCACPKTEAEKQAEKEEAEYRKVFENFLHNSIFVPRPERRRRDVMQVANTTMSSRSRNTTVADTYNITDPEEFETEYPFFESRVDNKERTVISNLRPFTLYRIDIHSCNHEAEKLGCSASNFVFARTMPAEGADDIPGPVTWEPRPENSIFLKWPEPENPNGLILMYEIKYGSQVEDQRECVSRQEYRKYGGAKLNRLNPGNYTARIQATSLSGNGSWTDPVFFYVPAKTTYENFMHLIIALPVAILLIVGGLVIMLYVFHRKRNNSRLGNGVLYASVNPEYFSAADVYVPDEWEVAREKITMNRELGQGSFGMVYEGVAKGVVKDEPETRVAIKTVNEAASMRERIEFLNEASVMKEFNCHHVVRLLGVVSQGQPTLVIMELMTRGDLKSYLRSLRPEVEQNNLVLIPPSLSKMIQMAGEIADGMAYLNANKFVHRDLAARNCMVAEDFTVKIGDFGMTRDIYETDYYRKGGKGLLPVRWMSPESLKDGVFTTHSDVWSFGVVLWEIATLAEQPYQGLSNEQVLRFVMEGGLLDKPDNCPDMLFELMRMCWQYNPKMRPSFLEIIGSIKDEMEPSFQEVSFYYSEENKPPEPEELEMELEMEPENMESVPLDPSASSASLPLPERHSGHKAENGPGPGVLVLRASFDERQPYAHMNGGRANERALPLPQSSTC

| Molecule | EC50 [1] [nM] | binding as Ac2 after Hz208F2-4 injected as Ac1 (soluble form of h-IGF1R) | IHC scoring of IGF-1R in SBC-5 tumor (IGF-1R, SBC-5 tumor) | OD values obtained at 5 μg/ml by ELISA, rhIR coating (rhIR) | binding to the human IR (rhIR) | OD values obtained at 5 μg/ml by ELISA, rmIGF-1R coating (rmIGF-1R) | binding to the murine form of the IGF-1R (rmIGF-1R) | OD values obtained at 5 μg/ml by ELISA, rhIGF-1R coating (rhIGF-1R) | EC50 (rhIGF-1R) [nM] | IHC scoring of the staining of MCF-7 tumor cells [2] |
| --- | --- | --- | --- | --- | --- | --- | --- | --- | --- | --- |
| hz208F2 H049/L021: humanized 208F2; VH SEQ ID No. 41, VL SEQ ID No. 37 (antibody, V domains shown, hz208F2 heavy chain H049, VH; hz208F2 Light chain L021, VL) VH: QVQLVQSGAEVKKPGASVKVSCKASGYTFTSYYMHWVRQAPGQGLEWMGWIWPGDGSTKYAQKFQGRVTMTRDKSSSTVYMELSSLRSEDTAVYYCASPMITPNYAMDYWGQGTLVTVSS VL: DIQMTQSPSSLSASVGDRVTITCRASQDISKYLNWYQQKPGKAPKLLIYYTSRLHSGVPSRFSGRGSGTDFSLTISSLQPEDFATYFCQQGSTLPYTFGGGTKVEIK | 0.66 | – | – | – | – | – | – | – | – | – |
| hz208F2 H076/L021: humanized 208F2; VH SEQ ID No. 55, VL SEQ ID No. 37 (antibody, V domains shown, hz208F2 heavy chain H076, VH; hz208F2 Light chain L021, VL) VH: QVQLVQSGAEVKKPGASVKVSCKASGYTFTSYYIHWVRQAPGQGLEWMGWIWPGDGSTKYAQKFQGRVTMTRDTSTSTVYMELSSLRSEDTAVYYCASPMITPNYAMDYWGQGTLVTVSS VL: DIQMTQSPSSLSASVGDRVTITCRASQDISKYLNWYQQKPGKAPKLLIYYTSRLHSGVPSRFSGRGSGTDFSLTISSLQPEDFATYFCQQGSTLPYTFGGGTKVEIK | 0.58 | – | – | – | – | – | – | – | – | – |
| 810D12: first IGF-1R mouse monoclonal antibody, hybridoma CNCM I-4893; VH SEQ ID No. 7, VL SEQ ID No. 8 (antibody, V domains shown, 810D12 I-4893, heavy chain, Variable domain; 810D12 I-4893, light chain, Variable domain) VH: EVQLQQSGPELVKPGASVKMSCKASGHTFTSYMLHWVKQKPGQGLEWLGFINPYNDVTKYNENFKGKATLTSDKSSSTAYMELNSLTSEDSAVYFCVTTAYYGNGRYFDVWGAGTTVTVSS VL: DIQMTQTTSSLSASLGDRVTISCRASQDITNYLTWYQQKPDGTVKVLIYYTSRLYSGVPSRFSGSGSGSDYSLTINNLEQEDIATYFCQQGYSLPWTFGGGTKLEIK | – | practically no effect | 1+ | 0.048 | do not bind | 1.293 | do not bind | 2.136 | 0.51 | 3+ |
| 816C12: first IGF-1R mouse monoclonal antibody, hybridoma CNCM I-4894; VH SEQ ID No. 17, VL SEQ ID No. 18 (antibody, V domains shown, 816C12 I-4894, heavy chain, Variable domain; 816C12 I-4894, light chain, Variable domain) VH: EVQLQQSGPELVKPGASVKMSCKASGHTFTSYVLHWMKRKPGQGLEWIGYINPHNDVTKYNENFKGKATLTSDKYSSTVYMEVSSLTSEDSAVYYCVSTAYYGNGRYFDVWGAGTTVTVSS VL: DIQMTQTTSSLSASLGDRVTISCRASQDINNYLNWYQQKPDGTVKLLIYYTSRLHSGVSSRFSGSGSGTDYSLTISNLEQEDIATYFCQQGNTLPWTFGGGTKLEIK | – | practically no effect | 1+ | 0.055 | do not bind | 0.065 | do not bind | 2.622 | 0.41 | 3+ |
